Laboratory results taken from patent publication US20220112288A1 (published 2022).
Changes are numbered by the printed parent chain.

B1: 75110_11D03A (antibody, V domains shown)
VH: EVQLVESGGGLVQPGGSLRLSCAASGFTFSSYWMSWVRQAPGKGLEWVANINQDGNEKYYVDSVKGRFTISRDNAKNSLFLQMNSLRAEDTAVYYCAREGGQWLALDYWGQGALVTVSS
VL: DIQMTQSPSSVSASVGDRVTITCRASQGISSWLAWYQQKPGKAPKFLISGASSLQSGVPSRFSGSGSGTDFTLTISSLQPEDFATYYCQQANSFPWTFGQGTKVEIK
notes: Tested here as non-clonal hybridoma supernatant from AlivaMab Mouse Kappa mice (detected with anti-mouse Fc and anti-human kappa)
B2: 75110_01A06A (antibody, V domains shown)
VH: B1 VH with Q53E, F68L, F80Y, Y95F, A105S
VL: B1 VL with T20S, F46I, S49Y
notes: as for B1
B3: 75110_03D16A (antibody, V domains shown)
VH: B1 VH with N56G, F80Y, A97V, A113T
VL: B1 VL with A34T, S49Y, G50A, S67F
notes: as for B1
B4: 75110_04K10A (antibody, V domains shown)
VH: B1 VH with N56S, F80Y, M83L, V93M, A105S, A113T
VL: B1 VL with F46V, S49Y, A51V, L54F, T72I
notes: as for B1
B5: 75110_07H07A (antibody, V domains shown)
VH: B1 VH with L4V, N52K, Q53E, D54E, N56S, F80Y, A97V, A113T
VL: B1 VL with A13G, F46L, S49F, E105Q
notes: as for B1
B6: 75110_14P05A (antibody, V domains shown)
VH: EVQLVESGGGLVQPGGSLRLSCAASGFTFSSYDVHWVRQATGKGLEWVSTIGTAGDTYYPGSVKGRFTISRENAKNSLYLQMNSLRAGDTAVYYCARGGFYYYGMDVWGQGTTVTVSS
VL: EIVLTQSPGTLSLSPGERATLSCRASQSVSSSYLAWYQQKPGQTPRLLIYGASSRATGIPDRFSGSGSGTDFTLTISRLEPEDFAVFYCQQSGSSPFTFGPGTKVDVK
notes: Tested as non-clonal AlivaMab Mouse Kappa hybridoma supernatant: human variable domains and human kappa, mouse Fc
B7: 75110_01D24A (antibody, V domains shown)
VH: QVQLQQWGAGLLKPSETLSLTCAVYGGSFSGYYWSWIRQPPGKGLEWIGEINHSGSTNYNPSLKSRVTISVDTSENQFSLKLNSVTAADTAVYYCARLVNWFDPWGQGTLVTVSS
VL: EIQMTQSPSSVSASVGDRVTITCRASQDISNWLAWYQQKPGKAPNLLIFAASSLQTGVPSRFSGSGSGTDFTLTISSLQPDDFATYYCQQANSFPYSFGQGTNLGIK
notes: as for B6
B8: 75110_04G16A (antibody, V domains shown)
VH: QVQLQESGPGLVKPSQTLSLTCTVSGDSISSGYYYWSWIRQHPGKGLEWIGYISYSGSTYYNPSLKSRLTISVNTSKNQFSLKLSSLTAADTAVYYCARDRPSNFDAFDIWGQGTMVTVSS
VL: B6 VL with S30G, S32T, T44A, S53F, F87Y, S92Y, F97L, V107I
notes: as for B6
B9: 75110_02I16A (antibody, IgG1, V domains shown)
VH: QVQLQQWGAGLLKPSETLSLTCDVYGGSFSGYYWTWIRQPPGKGLEWIGEINHSGTTNSNPSLKSRVTISVDTSKSQFSLRLSSVTAADTAVYFCTRELNWFDPWGQGTLVTVSS
VL: DIQMTQSPSSVSASVGDRVTITCRASQDIANWLAWYQQKPGKAPQLLIYAASSLLGGVPSRFSGSGSGADFTLTISSLHPEDFATYYCQQANSFPYTFGQGTKLEIK
notes: Tested as non-clonal AlivaMab Mouse Kappa hybridoma supernatant: human variable domains and human kappa, mouse Fc; also called 75110_02116A

Assays:
[1] = molecular target: T1, human CD4 on the surface of SKW3 cells or human PBMCs (human, UniProt P01730 26-458); test: FACS confirmation, supernatant on human PBMCs, anti-mouse Fc A647
T1 construct: whole, on cells; SKW3 CD4 knockout cells served as the negative cell line; also called hCD4; SKW3 WT

[2] = molecular target: T1, human CD4 on the surface of SKW3 cells …; test: FACS confirmation, supernatant on human PBMCs, anti-mouse Fc A647, CD4+ gate
[3] = molecular target: T1, human CD4 on the surface of SKW3 cells …; test: FACS confirmation, supernatant on SKW3 WT cells, anti-mouse Fc A647; background gMFI 3300
[4] = molecular target: T1, human CD4 on the surface of SKW3 cells …; test: FACS confirmation, supernatant on SKW3 WT cells, anti-human kappa FITC; background gMFI 2500
[5] = molecular target: T1, human CD4 on the surface of SKW3 cells …; test: FACS primary screen, non-clonal hybridoma supernatant, SKW3 vs SKW3 CD4 KO cells, anti-mouse Fc A647
[6] = molecular target: T1, human CD4 on the surface of SKW3 cells …; test: FACS primary screen, non-clonal hybridoma supernatant, SKW3 vs SKW3 CD4 KO cells, anti-human kappa FITC
[7] = molecular target: T1, human CD4 on the surface of SKW3 cells …; test: FACS binning on SKW3 cells; competitor OKT4-Alexa Fluor 488 (its signal read); background 2163, max binding 8200
[8] = molecular target: T1, human CD4 on the surface of SKW3 cells …; test: FACS binning on SKW3 cells; competitor RPA-T4-PE-Dazzle 594 (its signal read); background 783, max binding 15000
huCD4-HIS [9] = molecular target: T2, huCD4-HIS (human, UniProt P01730 26-390, limits assumed); test: ELISA binning; competitor ibalizumab; 100 ng/mL huCD4-HIS, anti-HIS HRP detection; background 45, max binding 3000000
T2 construct: not shown: HIS tag

[10] = molecular target: T1, human CD4 on the surface of SKW3 cells …; test: FACS binning on SKW3 cells; competitor OKT4a, anti-human A647 secondary (its signal read); background 5000, max binding 35000
[11] = molecular target: T3, human CD4 on cells (SKW3 cells; human PBMCs) (human, UniProt P01730 26-458); test: FACS confirmation, supernatant on human PBMCs, anti-mouse Fc 647, CD4+ gate
T3 construct: whole, on cells; SKW3 CD4 knockout cells served as the negative cell line; also called hCD4

[12] = molecular target: T3, human CD4 on cells (SKW3 cells; human …); test: FACS confirmation, supernatant on SKW3 WT cells, anti-mouse Fc 647; background gMFI 3300
[13] = molecular target: T3, human CD4 on cells (SKW3 cells; human …); test: FACS confirmation, supernatant on SKW3 WT cells, anti-human kappa FITC; background gMFI 2500
[14] = molecular target: T3, human CD4 on cells (SKW3 cells; human …); test: FACS confirmation, supernatant on human PBMCs, anti-mouse Fc 647, CD4+ percent of viable cells
[15] = molecular target: T3, human CD4 on cells (SKW3 cells; human …); test: FACS primary screen, non-clonal hybridoma supernatant, SKW3 vs SKW3 CD4 knockout cells, anti-mouse Fc A647
[16] = molecular target: T3, human CD4 on cells (SKW3 cells; human …); test: FACS primary screen, non-clonal hybridoma supernatant, SKW3 vs SKW3 CD4 knockout cells, anti-human kappa FITC
huCD4-HIS [17] = molecular target: T4, huCD4-HIS (human, UniProt P01730 26-390, limits assumed); test: ELISA binning, competitor Ibalizumab; 100 ng/mL huCD4-HIS, anti-HIS HRP detection; background 45, max binding 3000000
T4 construct: the ELISA binning is not described in the text of this stretch

[18] = molecular target: T3, human CD4 on cells (SKW3 cells; human …); test: FACS binning on SKW3 cells pre-incubated with supernatant; competitor OKT4-A488, its signal read; background 2163, max binding 8200
[19] = molecular target: T3, human CD4 on cells (SKW3 cells; human …); test: FACS binning on SKW3 cells pre-incubated with supernatant; competitor RPA-T4-PE-Dazzle 594, its signal read; background 783, max binding 15000
[20] = molecular target: T3, human CD4 on cells (SKW3 cells; human …); test: FACS binning on SKW3 cells pre-incubated with supernatant; competitor OKT4a read with anti-human A647 secondary; background 5000, max binding 35000

Binder | PBMCs, anti-mFc 647 CD4+ Percent Bound of Viable [1] [%] | PBMCs, anti-mFc 647 CD4+ gate - RL1 Binding [2] | SKW3 WT anti-mFc 647, gMFI [3] [gMFI] | SKW3 WT anti-hu Kappa FITC, gMFI [4] [gMFI] | SKW3 WT vs KO anti-mFc-647 [5] [ratio] | SKW3 WT vs KO anti-hKappa-FITC [6] [ratio] | OKT4 A488 signal [7] | RPA-T4-PE-Dazzle 594 signal [8] | Ibalizumab ELISA binning signal (huCD4-HIS [9]) | OKT4a anti-hu A647 Secondary signal [10] | PBMCs, anti-mFc 647 CD4+ gate - RL1 Binding [11] | SKW3 WT anti-mFc 647, gMFI [12] [gMFI] | SKW3 WT anti-hu Kappa FITC, gMFI [13] [gMFI] | PBMCs, anti-mFc 647 CD4+ Percent Bound of Viable [14] [%] | SKW3 WT vs KO anti-mFc-647 [15] [fold] | SKW3 WT vs KO anti-hKappa-FITC [16] [fold] | Ibalizumab ELISA binning signal (huCD4-HIS [17]) | SKW3 FACS Binning OKT4 A488 [18] | SKW3 FACS Binning RPA-T4-PE-Dazzle 594 [19] | SKW3 FACS Binning OKT4a anti-hu A647 Secondary [20]
B1 | 29 | 190000 | 21100 | 4000 | 2.6 | 1 | 4180 | 13100 | 1.63e+06 | 43700 |  |  |  |  |  |  |  |  |  | 
B2 | 31 | 321000 | 32300 | 5930 | 7.5 | 2.4 | 2140 | 14700 | 1.26e+06 | 43700 |  |  |  |  |  |  |  |  |  | 
B3 | 31 | 319000 | 36000 | 7600 | 6.5 | 2.8 | 2280 | 12300 | 663000 | 35900 |  |  |  |  |  |  |  |  |  | 
B4 | 33 | 346000 | 36700 | 6710 | 5 | 1.5 | 2760 | 9800 | 1.13e+06 | 43100 |  |  |  |  |  |  |  |  |  | 
B5 | 27 | 234000 | 34300 | 8510 | 5.7 | 2.3 | 2060 | 14900 | 2.11e+06 | 39400 |  |  |  |  |  |  |  |  |  | 
B6 |  |  |  |  |  |  |  |  |  |  | 187000 | 24000 | 7520 | 27 | 4.6 | 2.8 | 710000 | 9340 | 20300 | 6110
B7 |  |  |  |  |  |  |  |  |  |  | 257000 | 25000 | 5520 | 31 | 6.8 | 2.5 | 20300 | 11100 | 15200 | 5320
B8 |  |  |  |  |  |  |  |  |  |  | 255000 | 32500 | 6830 | 32 | 6.3 | 2.3 | 52600 | 9640 | 13500 | 6740
B9 |  |  |  |  |  |  |  |  |  |  | 218000 | 19400 | 5740 | 29 | 3 | 1.7 | 823000 | 9810 | 2590 | 30700
